The series relates to Escherichia coli TOP10. The series is described as follows: shrunken log2 fold change of peptide-encoding DNA abundance (4.5 h post-induction vs induction); higher = less antimicrobial activity (less host growth inhibition). The following applies: time post-induction: 4.5 h; library: site-saturation at positions 5, 18, 19, 20.
In the case of RRIRVRPPRLPRPRPRPMCHPRP, the “shrunken log2 fold change” value was -0.0674.

Consider RRIRPRPPRLPRPRPRPYMTPRP, for which the “shrunken log2 fold change” value is -0.227.

In the case of RRIRYRPPRLPRPRPRPFCHPRP, the “shrunken log2 fold change” value was -0.239.

In the case of RRIRCRPPRLPRPRPRPHVHPRP, the “shrunken log2 fold change” value was -0.245.

For RRIRCRPPRLPRPRPRPTIVPRP, the “shrunken log2 fold change” value is -0.0931.

As for RRIRERPPRLPRPRPRPVNTPRP, the “shrunken log2 fold change” value was -0.34.

For the sequence RRIRQRPPRLPRPRPRPYCMPRP, the “shrunken log2 fold change” value is -0.302.

For RRIRKRPPRLPRPRPRPASMPRP, the “shrunken log2 fold change” value worked out at 0.116.

As for RRIRLRPPRLPRPRPRPGNDPRP, the “shrunken log2 fold change” value was -0.0526.

Regarding RRIRPRPPRLPRPRPRPKWVPRP, the “shrunken log2 fold change” value is 0.111.

Take RRIRCRPPRLPRPRPRPDVSPRP: the “shrunken log2 fold change” value is -0.185.

On to RRIRKRPPRLPRPRPRPEKTPRP, for which the “shrunken log2 fold change” value is -0.000942.

For RRIRNRPPRLPRPRPRPYRSPRP, the “shrunken log2 fold change” value is -0.0179.

For RRIRKRPPRLPRPRPRPRIYPRP, the “shrunken log2 fold change” value is -0.0634.

RRIRYRPPRLPRPRPRPFFRPRP: the “shrunken log2 fold change” value was -0.019.

RRIRVRPPRLPRPRPRPSILPRP: the “shrunken log2 fold change” value is -0.312.

As to RRIRFRPPRLPRPRPRPTLCPRP, the “shrunken log2 fold change” value worked out at 0.107.

RRIRWRPPRLPRPRPRPKTVPRP: the “shrunken log2 fold change” value came out at 0.227.

For the sequence RRIRKRPPRLPRPRPRPTICPRP, the “shrunken log2 fold change” value is -0.0104.

For the sequence RRIRKRPPRLPRPRPRPLSWPRP, the “shrunken log2 fold change” value turned out to be 0.826.

With RRIRIRPPRLPRPRPRPPRMPRP, the “shrunken log2 fold change” value stood at 0.21.

Consider RRIRRRPPRLPRPRPRPWPFPRP, for which the “shrunken log2 fold change” value is -0.0442.

On to RRIRPRPPRLPRPRPRPTNSPRP, for which the “shrunken log2 fold change” value was -0.195.

Take RRIRGRPPRLPRPRPRPWWTPRP: the “shrunken log2 fold change” value is -0.124.

As for RRIRDRPPRLPRPRPRPSNWPRP, the “shrunken log2 fold change” value was -0.136.

With RRIRGRPPRLPRPRPRPCDAPRP, the “shrunken log2 fold change” value was 0.473.

As to RRIRIRPPRLPRPRPRPRYDPRP, the “shrunken log2 fold change” value was -0.285.

RRIRQRPPRLPRPRPRPNDTPRP: the “shrunken log2 fold change” value is -0.752.

Consider RRIRDRPPRLPRPRPRPVSYPRP, for which the “shrunken log2 fold change” value was -0.0715.

RRIRPRPPRLPRPRPRPPCNPRP: the “shrunken log2 fold change” value was -0.0234.

Regarding RRIRWRPPRLPRPRPRPLTEPRP, the “shrunken log2 fold change” value was found to be 0.251.

With RRIRERPPRLPRPRPRPEGAPRP, the “shrunken log2 fold change” value is 0.592.

Regarding RRIRVRPPRLPRPRPRPPMGPRP, the “shrunken log2 fold change” value amounted to 0.254.

With RRIRARPPRLPRPRPRPLANPRP, the “shrunken log2 fold change” value amounted to 0.255.

Consider RRIRQRPPRLPRPRPRPSGLPRP, for which the “shrunken log2 fold change” value is -0.0802.

For RRIRTRPPRLPRPRPRPEVAPRP, the “shrunken log2 fold change” value was 0.0197.

For RRIRCRPPRLPRPRPRPRSPPRP, the “shrunken log2 fold change” value came out at 0.636.

For the sequence RRIRLRPPRLPRPRPRPGSFPRP, the “shrunken log2 fold change” value was determined as 0.236.

With RRIRTRPPRLPRPRPRPMFEPRP, the “shrunken log2 fold change” value is -0.171.

Regarding RRIRCRPPRLPRPRPRPMFIPRP, the “shrunken log2 fold change” value was -1.16.

On to RRIRPRPPRLPRPRPRPTPKPRP, for which the “shrunken log2 fold change” value was 0.528.

As for RRIRPRPPRLPRPRPRPYFKPRP, the “shrunken log2 fold change” value is -0.796.

In the case of RRIRPRPPRLPRPRPRPHCIPRP, the “shrunken log2 fold change” value was -0.325.

With RRIRCRPPRLPRPRPRPRHKPRP, the “shrunken log2 fold change” value is -0.265.

Turning to RRIRWRPPRLPRPRPRPWYFPRP, the “shrunken log2 fold change” value is 0.275.

Regarding RRIRERPPRLPRPRPRPSAKPRP, the “shrunken log2 fold change” value amounted to 0.0244.

For RRIRRRPPRLPRPRPRPAQSPRP, the “shrunken log2 fold change” value was 0.247.

Consider RRIRHRPPRLPRPRPRPIFLPRP, for which the “shrunken log2 fold change” value is -0.572.

Turning to RRIRPRPPRLPRPRPRPNFKPRP, the “shrunken log2 fold change” value is -0.225.

Take RRIRFRPPRLPRPRPRPWSFPRP: the “shrunken log2 fold change” value is -0.34.

As to RRIRARPPRLPRPRPRPTNRPRP, the “shrunken log2 fold change” value was 0.05.

Take RRIRYRPPRLPRPRPRPQDLPRP: the “shrunken log2 fold change” value was determined as 0.0284.

Consider RRIRLRPPRLPRPRPRPKKKPRP, for which the “shrunken log2 fold change” value is 0.141.

Regarding RRIRARPPRLPRPRPRPLLPPRP, the “shrunken log2 fold change” value worked out at 0.419.

For RRIRQRPPRLPRPRPRPKGRPRP, the “shrunken log2 fold change” value is 0.0377.

On to RRIRFRPPRLPRPRPRPIRAPRP, for which the “shrunken log2 fold change” value was -0.0742.

For the sequence RRIRNRPPRLPRPRPRPHPIPRP, the “shrunken log2 fold change” value amounted to 0.033.

As to RRIRTRPPRLPRPRPRPFPQPRP, the “shrunken log2 fold change” value was -0.042.

For RRIRRRPPRLPRPRPRPSAYPRP, the “shrunken log2 fold change” value came out at 0.104.

Consider RRIRQRPPRLPRPRPRPSAKPRP, for which the “shrunken log2 fold change” value is 0.104.

Take RRIRYRPPRLPRPRPRPKREPRP: the “shrunken log2 fold change” value turned out to be 0.0201.

Take RRIRVRPPRLPRPRPRPGDQPRP: the “shrunken log2 fold change” value stood at 0.0324.

RRIRRRPPRLPRPRPRPGEDPRP: the “shrunken log2 fold change” value was 0.00579.

In the case of RRIRFRPPRLPRPRPRPEMMPRP, the “shrunken log2 fold change” value worked out at 0.00382.

As to RRIRKRPPRLPRPRPRPSAHPRP, the “shrunken log2 fold change” value turned out to be 0.164.

Regarding RRIRNRPPRLPRPRPRPCETPRP, the “shrunken log2 fold change” value was -0.0224.

In the case of RRIRQRPPRLPRPRPRPHTKPRP, the “shrunken log2 fold change” value is -0.213.

As for RRIRMRPPRLPRPRPRPLSYPRP, the “shrunken log2 fold change” value amounted to 0.134.

In the case of RRIRERPPRLPRPRPRPQPDPRP, the “shrunken log2 fold change” value was -0.258.

RRIRDRPPRLPRPRPRPWWPPRP: the “shrunken log2 fold change” value was 0.0881.

With RRIRFRPPRLPRPRPRPADHPRP, the “shrunken log2 fold change” value came to 0.00851.

Consider RRIRRRPPRLPRPRPRPARSPRP, for which the “shrunken log2 fold change” value was 0.512.

RRIRNRPPRLPRPRPRPQRVPRP: the “shrunken log2 fold change” value turned out to be 0.399.

On to RRIRYRPPRLPRPRPRPMAPPRP, for which the “shrunken log2 fold change” value turned out to be 0.025.

For RRIRFRPPRLPRPRPRPLPSPRP, the “shrunken log2 fold change” value came out at 0.0283.

Regarding RRIRNRPPRLPRPRPRPLQKPRP, the “shrunken log2 fold change” value is -0.0108.

Take RRIRNRPPRLPRPRPRPLHCPRP: the “shrunken log2 fold change” value was -0.168.

In the case of RRIRQRPPRLPRPRPRPQKAPRP, the “shrunken log2 fold change” value is -0.109.

As for RRIRERPPRLPRPRPRPMEEPRP, the “shrunken log2 fold change” value amounted to 0.161.

On to RRIRQRPPRLPRPRPRPEWAPRP, for which the “shrunken log2 fold change” value turned out to be 0.0739.

Take RRIRDRPPRLPRPRPRPMPTPRP: the “shrunken log2 fold change” value was -0.0113.

With RRIRSRPPRLPRPRPRPCAMPRP, the “shrunken log2 fold change” value is -0.173.

As to RRIRMRPPRLPRPRPRPTPAPRP, the “shrunken log2 fold change” value was found to be 2.13.

On to RRIRYRPPRLPRPRPRPSDMPRP, for which the “shrunken log2 fold change” value was -0.00973.

Take RRIRQRPPRLPRPRPRPNYNPRP: the “shrunken log2 fold change” value was -0.0928.

With RRIRFRPPRLPRPRPRPSMHPRP, the “shrunken log2 fold change” value is -0.291.

As to RRIRKRPPRLPRPRPRPRKFPRP, the “shrunken log2 fold change” value turned out to be 0.106.

RRIRMRPPRLPRPRPRPGVQPRP: the “shrunken log2 fold change” value turned out to be 0.16.

With RRIRERPPRLPRPRPRPWLGPRP, the “shrunken log2 fold change” value was -0.247.

In the case of RRIRGRPPRLPRPRPRPCAPPRP, the “shrunken log2 fold change” value is 0.826.

Consider RRIRERPPRLPRPRPRPVWFPRP, for which the “shrunken log2 fold change” value was -0.0467.

On to RRIRERPPRLPRPRPRPWISPRP, for which the “shrunken log2 fold change” value worked out at 0.0119.

As for RRIRTRPPRLPRPRPRPCAMPRP, the “shrunken log2 fold change” value is -0.111.

As to RRIRLRPPRLPRPRPRPFDKPRP, the “shrunken log2 fold change” value is -0.151.

With RRIRSRPPRLPRPRPRPFPNPRP, the “shrunken log2 fold change” value is -0.133.

RRIRLRPPRLPRPRPRPWDEPRP: the “shrunken log2 fold change” value came out at 0.066.

Consider RRIRQRPPRLPRPRPRPRFVPRP, for which the “shrunken log2 fold change” value was 0.165.

For the sequence RRIRIRPPRLPRPRPRPQWEPRP, the “shrunken log2 fold change” value is -0.0938.

Regarding RRIRVRPPRLPRPRPRPIAAPRP, the “shrunken log2 fold change” value came to 0.454.

Consider RRIRARPPRLPRPRPRPLVFPRP, for which the “shrunken log2 fold change” value stood at 0.397.

For RRIRGRPPRLPRPRPRPDNNPRP, the “shrunken log2 fold change” value is 0.388.

With RRIRCRPPRLPRPRPRPCQLPRP, the “shrunken log2 fold change” value is -0.171.

In the case of RRIRVRPPRLPRPRPRPMQMPRP, the “shrunken log2 fold change” value was -0.0841.

Consider RRIRERPPRLPRPRPRPVKYPRP, for which the “shrunken log2 fold change” value was -0.0311.

With RRIRCRPPRLPRPRPRPWGTPRP, the “shrunken log2 fold change” value was -0.0869.

For the sequence RRIRLRPPRLPRPRPRPKIEPRP, the “shrunken log2 fold change” value was determined as 0.0278.

As to RRIRHRPPRLPRPRPRPPHIPRP, the “shrunken log2 fold change” value is -0.287.

Turning to RRIRTRPPRLPRPRPRPSCPPRP, the “shrunken log2 fold change” value was -0.444.

In the case of RRIRCRPPRLPRPRPRPNATPRP, the “shrunken log2 fold change” value was 0.382.

On to RRIRKRPPRLPRPRPRPAHYPRP, for which the “shrunken log2 fold change” value is 0.123.

On to RRIRPRPPRLPRPRPRPLPYPRP, for which the “shrunken log2 fold change” value was -0.31.

In the case of RRIRSRPPRLPRPRPRPSEVPRP, the “shrunken log2 fold change” value was -0.015.

Regarding RRIRRRPPRLPRPRPRPDLVPRP, the “shrunken log2 fold change” value came to 0.0743.

RRIRSRPPRLPRPRPRPDMWPRP: the “shrunken log2 fold change” value was -0.409.

In the case of RRIRCRPPRLPRPRPRPVMAPRP, the “shrunken log2 fold change” value was -0.354.

Turning to RRIRYRPPRLPRPRPRPSQQPRP, the “shrunken log2 fold change” value is 0.102.

Turning to RRIRIRPPRLPRPRPRPEIHPRP, the “shrunken log2 fold change” value is -0.0126.

For RRIRKRPPRLPRPRPRPFSTPRP, the “shrunken log2 fold change” value is -0.187.

Consider RRIRFRPPRLPRPRPRPLILPRP, for which the “shrunken log2 fold change” value was -0.739.

With RRIRDRPPRLPRPRPRPPYIPRP, the “shrunken log2 fold change” value is -0.346.

Consider RRIRKRPPRLPRPRPRPETRPRP, for which the “shrunken log2 fold change” value came out at 0.269.

Consider RRIRNRPPRLPRPRPRPLKTPRP, for which the “shrunken log2 fold change” value was -0.0746.

Consider RRIRSRPPRLPRPRPRPQWCPRP, for which the “shrunken log2 fold change” value stood at 0.111.

For the sequence RRIRVRPPRLPRPRPRPRRCPRP, the “shrunken log2 fold change” value was -0.0137.

For the sequence RRIRDRPPRLPRPRPRPFDGPRP, the “shrunken log2 fold change” value was -0.192.

For the origin of these results see the supplement of paper PMC9112550, “Optimization of the antimicrobial peptide Bac7 by deep mutational scanning” (BMC Biology, 2022).
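Note: peptides expressed intracellularly from a pBAD plasmid library in pooled LB shake-flask culture, induced with 0.3% L-arabinose, DNA abundance read by NGS, three biological replicates, DESeq2 with apeglm shrinkage.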
